Source: the RNAGym collection of RNA variant scans (doi:10.7554/elife.90254)

B1: OR4K15 (parent)
chain: GUUAACGGUCAUAGGCCAUGGAAACUAGGAGCACCAUUUCGCUGCCAGUGAAGAAAUGAACAAAGAAAAUCUGGGCCAGGCAGGCAUCAAAAGAAAUAGUCUUGCGCUCAACCAGAAAGUCUGUAAUCAUUUUAAGGGUA

Variants of: B1
Test: self-cleavage, relative activity (ratio to wild type); higher = more cleavage; in vitro, sequencing; the parent is a self-cleaving ribozyme

| Variant | self-cleavage |
| --- | --- |
| C10U A56G | 0.84 |
| G80A U108C | 0.01 |
| A24G A68U | 0.87 |
| C25U A86C | 0.72 |
| A47G A86U | 2.98 |
| C85G A96G | 1.02 |
| C105A C112U | 0 |
| A22G A24G | 1 |
| G7A U87C | 1.25 |
| A22G U100A | 0.54 |
| C6G U100C | 0.97 |
| U38A A56G | 0.94 |
| A64G U133A | 1.52 |
| A67U U131G | 1.68 |
| G7A A90G | 1.26 |
| A55C U103A | 0.38 |
| U49G A90G | 0.75 |
| A56G A114C | 0.02 |
| A33G A54U | 1.04 |
| A11U A55G | 0.82 |
| A56G A129G | 1.45 |
| U57C A94G | 1.62 |
| A27G U131C | 1.67 |
| A22U U100C | 2.44 |

| Variant | self-cleavage |
| --- | --- |
| G74A U108C | 0.01 |
| C16U U132C | 1.11 |
| A24U A33G | 1.14 |
| A54U A82U | 0.24 |
| A60U A110G | 0.24 |
| C16U U97C | 1.23 |
| A110U U139C | 0.59 |
| C61U | 1.8 |
| G74C A110U | 0.14 |
| A89U U102A | 0.98 |
| C16G U37C | 1.55 |
| A96G A140U | 1.93 |
| A47C A68G | 0.55 |
| U57C G75C | 0.17 |
| A33C U132C | 1.46 |
| A54G U100A | 0.57 |
| U39G A96U | 1.58 |
| A30U U108A | 0.05 |
| A86G U131C | 1.23 |
| C17U A27C | 0.44 |
| A30G A94G | 1.29 |
| U37C C107U | 0.02 |
| U100C U103C | 2.89 |
| A55G A92U | 1.65 |

| Variant | self-cleavage |
| --- | --- |
| A24U A86G | 1.8 |
| U2A A95U | 0.86 |
| G7A U12C | 1.33 |
| A23U U103C | 0.03 |
| A82G U133C | 0.72 |
| A59G C121A | 2.81 |
| A78C C109U | 0.19 |
| C42U U108A | 0 |
| U37C A62G | 1.57 |
| A55U A67U | 1.6 |
| A60G A90G | 0.4 |
| A111G A126U | 0.01 |
| A63G U124C | 1.17 |
| C76U A118G | 0.1 |
| A110U U130C | 1.06 |
| A36G A116U | 1 |
| C34U A52G | 0.85 |
| G75A U87C | 0.14 |
| C42U U139A | 2 |
| G14A U130C | 0.45 |
| G75A G138A | 0.13 |
| G93U A135G | 1.96 |
| A47U U133C | 0.97 |
| A63U U131C | 1.33 |

| Variant | self-cleavage |
| --- | --- |
| U26C A27U | 1.2 |
| A63G A78U | 0.22 |
| A90U U103A | 0.34 |
| U2C U132A | 1.23 |
| U2C A36G | 1.25 |
| A11G U120C | 0.35 |
| U37C A51U | 1.83 |
| U39C A56C | 0.43 |
| A114G C128U | 0.11 |
| G58U A126G | 0.8 |
| A67G U97A | 1.71 |
| A30G A116C | 0.03 |
| A89G U139A | 1.67 |
| U72C G83A | 0.08 |
| C32A A56G | 0.28 |
| A78G A98U | 0.39 |
| U37C U72A | 0.51 |
| C88A U102C | 2.23 |
| A60G U70C | 0.8 |
| A89U A98U | 1.41 |
| A4G U19C | 1.78 |
| G65A U132G | 0.82 |
| A51G U130G | 0.67 |
| G106A A118G | 0.02 |

| Variant | self-cleavage |
| --- | --- |
| U108C A134C | 0.01 |
| A24C A111G | 0.01 |
| U122A A129G | 1.38 |
| U39C A60C | 2.05 |
| A114U G123A | 0.11 |
| U57C U97A | 1.32 |
| C6U A117U | 1.1 |
| A24G A56C | 1.02 |
| U12C A23G | 0.76 |
| A18G G83A | 1.54 |
| G28A A89U | 1.38 |
| U57C G84A | 1.76 |
| A36C A126G | 1.17 |
| U57A G75A | 0.27 |
| U72C A129U | 0.07 |
| C34U A67U | 1.92 |
| A54U G106A | 0.02 |
| A24C A90G | 0.69 |
| C34U A94G | 1.55 |
| A13U A63U | 1.13 |
| U39C A55U | 2.15 |
| A55G A82U | 0.22 |
| A18G C109A | 0.34 |
| A66G | 1.09 |

| Variant | self-cleavage |
| --- | --- |
| U2C A140U | 1.55 |
| A24G A30U | 1.29 |
| A78G A117G | 0.22 |
| G15A A111G | 0.01 |
| U49C A86U | 1.68 |
| C17U C109A | 0.2 |
| U124C A140G | 0.57 |
| G20A A118G | 0.79 |
| A22G U39C | 1.67 |
| G104C | 0.02 |
| G29A A96G | 2.13 |
| U37C A78U | 0.32 |
| A11G A134C | 0.5 |
| A62G A68U | 1.33 |
| G31A U57C | 1.2 |
| U72A A114G | 0.11 |
| U38C A63U | 0.76 |
| A56U A126U | 0.81 |
| U3C A95G | 1.02 |
| A30U A82G | 0.52 |
| U39C A92U | 1.99 |
| U43G A51U | 2.16 |
| A62U A86G | 1.88 |
| U49C A90G | 0.94 |

| Variant | self-cleavage |
| --- | --- |
| A66U U100C | 2.47 |
| U49C C109U | 0.18 |
| U57A A66G | 0.73 |
| A60G A140U | 1.06 |
| U100C A111C | 0.01 |
| A78U U102C | 1.21 |
| A96G U103G | 0.03 |
| G74U A111G | 0.04 |
| C76G A96U | 0.09 |
| A27C A78G | 0.21 |
| A18U U49C | 1.47 |
| G119U | 1.82 |
| A54G U72C | 0.23 |
| A116G | 0.47 |
| U3A U127C | 0.63 |
| U2C U120A | 1.03 |
| A33G U72A | 0.12 |
| A67G G84U | 0.35 |
| U39A U108C | 0.02 |
| A111G U127G | 0.02 |
| G48A U108A | 0.01 |
| A89G A96U | 1.27 |
| A54G A78U | 0.26 |
